We go through 23 substances from patent publication US7183387.

In experiment [1] the target is human FcγRIIA-R131 α subunit extracellular domain-His6-GST fusion (human) (UniProt P12318). Put plainly: ELISA, IgG:IgE hexamer on coated FcγRIIA-R131-GST; value carried over from Table 6, 7 or 8.
The target in experiment [2] is human C1q (Quidel) (human) (UniProt P02745). Put plainly: C1q ELISA. In general terms: In an ELISA, binding on a coated surface is turned into a signal by an enzyme label.
Experiment [3] shares this target. Put plainly: C1q ELISA. This is another data set of the same source.
Experiment [4] deals with human FcγRIIIA-F158 α subunit extracellular domain-6His-GST fusion (human) (UniProt P08637). Put plainly: ELISA, IgG:IgE hexamers on receptor-GST.
Experiment [5] concerns the target CD20 antigen on WIL2-S cells (UniProt P11836). Put plainly: flow cytometry, WIL2-S cells. In general terms: Flow cytometry measures light scatter and fluorescence of single cells or particles in a stream.
Experiment [6] addresses human FcγRIIB α subunit extracellular domain-His6-GST fusion (human) (UniProt P31994). As to the kind of experiment: immune complex ELISA, E27 background.
Experiment [7] has as its target human FcγRIIA-R131 α subunit extracellular domain-His6-GST fusion (human) (UniProt P12318). Put plainly: ELISA, IgG complex, receptor coated.
The target in experiment [8] is human C1q (Quidel) (human) (UniProt P02745). Put plainly: cell-based or functional assay.
The target in experiment [9] is human FcγRIIB α subunit extracellular domain-6His-GST fusion (human) (UniProt P31994). Put plainly: ELISA, IgG:IgE hexamers on receptor-GST.
Chain of human FcγRIIB α subunit extracellular domain-6His-GST fusion (human) (P31994 other isoform, or with tags, fused parts or gaps, form in doubt): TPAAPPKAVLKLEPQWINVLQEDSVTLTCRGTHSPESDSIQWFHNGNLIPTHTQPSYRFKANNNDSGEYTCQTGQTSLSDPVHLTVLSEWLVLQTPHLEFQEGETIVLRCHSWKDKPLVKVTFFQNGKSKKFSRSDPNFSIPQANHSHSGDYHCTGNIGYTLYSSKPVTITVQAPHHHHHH
For experiment [10], the target named is human FcγRIIA-R131 α subunit extracellular domain-6His-GST fusion (human) (UniProt P12318). Put plainly: ELISA, IgG:IgE hexamers on receptor-GST.
Chain of human FcγRIIA-R131 α subunit extracellular domain-6His-GST fusion (human) (P12318 other isoform, or with tags, fused parts or gaps, form in doubt): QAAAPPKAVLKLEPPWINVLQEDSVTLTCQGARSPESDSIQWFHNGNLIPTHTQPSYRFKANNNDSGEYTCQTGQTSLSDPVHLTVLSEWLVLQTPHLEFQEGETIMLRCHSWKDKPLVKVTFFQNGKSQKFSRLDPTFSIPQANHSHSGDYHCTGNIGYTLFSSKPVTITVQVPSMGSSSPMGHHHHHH
Experiment [11] concerns the target human C1q (Quidel) (human) (UniProt P02745). As to the kind of experiment: C1q ELISA. The source holds these as a separate data set.
The target of experiment [12] is human FcγRIA α subunit extracellular domain-His6-GST fusion (human) (UniProt P12314). As to the kind of experiment: FcγRI ELISA and THP-1 cells, averaged.
Chain of human FcγRIA α subunit extracellular domain-His6-GST fusion (human) (P12314 other isoform, or with tags, fused parts or gaps): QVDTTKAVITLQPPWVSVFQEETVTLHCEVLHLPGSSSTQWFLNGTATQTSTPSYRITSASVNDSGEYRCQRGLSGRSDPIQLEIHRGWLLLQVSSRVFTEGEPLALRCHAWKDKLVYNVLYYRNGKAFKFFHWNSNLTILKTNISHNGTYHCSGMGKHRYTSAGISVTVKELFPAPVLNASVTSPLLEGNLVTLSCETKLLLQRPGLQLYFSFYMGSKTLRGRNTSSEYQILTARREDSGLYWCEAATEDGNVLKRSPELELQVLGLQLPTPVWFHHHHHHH
Experiment [13] deals with human neonatal Fc receptor (FcRn), biotinylated (human) (UniProt P55899). Put plainly: FcRn ELISA, pH 6.0.
Chain of human neonatal Fc receptor (FcRn), biotinylated (human) (P55899 24-297 limits assumed, chain 1 of 2): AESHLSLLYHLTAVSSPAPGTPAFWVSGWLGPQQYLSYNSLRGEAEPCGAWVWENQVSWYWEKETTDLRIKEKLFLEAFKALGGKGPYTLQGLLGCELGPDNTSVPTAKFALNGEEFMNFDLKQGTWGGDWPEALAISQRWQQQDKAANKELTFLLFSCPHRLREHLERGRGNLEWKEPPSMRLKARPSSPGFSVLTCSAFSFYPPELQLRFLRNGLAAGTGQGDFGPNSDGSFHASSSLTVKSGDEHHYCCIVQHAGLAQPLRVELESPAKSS
Chain of human neonatal Fc receptor (FcRn), biotinylated (human) (P61769 21-119 limits assumed, chain 2 of 2, further chain): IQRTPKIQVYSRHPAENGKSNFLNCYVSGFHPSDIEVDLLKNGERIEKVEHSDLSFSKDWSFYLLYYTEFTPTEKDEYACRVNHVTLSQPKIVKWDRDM
Experiment [14] concerns the target human FcγRIIA-Arg131 α subunit extracellular domain-His6-GST fusion (human) (UniProt P12318). As to the kind of experiment: hexamer ELISA.
Experiment [15] deals with human FcγRIIIA-Phe158 on cells (CHO cells stably transfected with α- and γ-chains; NK cells of Phe158/Phe158 donors) (human) (UniProt P08637). As to the kind of experiment: cell-based or functional assay.
Chain of human FcγRIIIA-Phe158 on cells (CHO cells stably transfected with α- and γ-chains; NK cells of Phe158/Phe158 donors) (human) (P08637 17-254, chain 1 of 2): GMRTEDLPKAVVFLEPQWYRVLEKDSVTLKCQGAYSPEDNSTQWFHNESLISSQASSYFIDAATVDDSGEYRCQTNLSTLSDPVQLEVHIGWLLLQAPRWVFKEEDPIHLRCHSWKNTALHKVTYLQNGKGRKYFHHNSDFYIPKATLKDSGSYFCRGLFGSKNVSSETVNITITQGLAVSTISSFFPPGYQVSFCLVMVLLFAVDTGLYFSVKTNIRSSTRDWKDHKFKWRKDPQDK
Chain of human FcγRIIIA-Phe158 on cells (CHO cells stably transfected with α- and γ-chains; NK cells of Phe158/Phe158 donors) (human) (P30273 19-86, chain 2 of 2, further chain): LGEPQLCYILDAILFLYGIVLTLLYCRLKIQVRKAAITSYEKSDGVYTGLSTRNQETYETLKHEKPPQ

Where two headings read alike, the source gives them in different places. Some results are limits rather than exact numbers.

Chain of CD20 antigen on WIL2-S cells (P11836 whole entry, the tested form may be a part): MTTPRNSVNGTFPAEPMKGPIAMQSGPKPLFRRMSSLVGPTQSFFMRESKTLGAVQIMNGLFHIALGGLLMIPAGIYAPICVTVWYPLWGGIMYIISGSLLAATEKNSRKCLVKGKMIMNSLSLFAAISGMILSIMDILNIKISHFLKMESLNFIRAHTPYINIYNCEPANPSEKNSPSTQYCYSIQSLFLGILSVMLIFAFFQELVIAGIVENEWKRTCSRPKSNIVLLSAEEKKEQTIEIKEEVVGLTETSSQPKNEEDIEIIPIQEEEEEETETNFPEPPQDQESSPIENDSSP
Chain of human C1q (Quidel) (human) (P02745 23-245, chain 1 of 3): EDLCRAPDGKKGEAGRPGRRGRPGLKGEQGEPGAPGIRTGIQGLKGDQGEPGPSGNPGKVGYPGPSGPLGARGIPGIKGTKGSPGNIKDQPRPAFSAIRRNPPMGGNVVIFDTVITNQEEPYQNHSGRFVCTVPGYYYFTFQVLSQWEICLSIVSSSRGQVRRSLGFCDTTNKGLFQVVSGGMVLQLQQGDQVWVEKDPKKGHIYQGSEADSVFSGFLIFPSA
Chain of human C1q (Quidel) (human) (P02746 28-253, chain 2 of 3, further chain): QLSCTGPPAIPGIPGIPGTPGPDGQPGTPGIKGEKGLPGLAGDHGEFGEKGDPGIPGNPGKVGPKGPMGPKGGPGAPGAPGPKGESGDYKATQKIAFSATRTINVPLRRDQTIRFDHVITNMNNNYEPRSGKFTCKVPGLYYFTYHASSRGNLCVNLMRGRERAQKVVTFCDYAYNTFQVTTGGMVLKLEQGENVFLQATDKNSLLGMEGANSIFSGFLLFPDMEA
Chain of human C1q (Quidel) (human) (P02747 29-245, chain 3 of 3, further chain): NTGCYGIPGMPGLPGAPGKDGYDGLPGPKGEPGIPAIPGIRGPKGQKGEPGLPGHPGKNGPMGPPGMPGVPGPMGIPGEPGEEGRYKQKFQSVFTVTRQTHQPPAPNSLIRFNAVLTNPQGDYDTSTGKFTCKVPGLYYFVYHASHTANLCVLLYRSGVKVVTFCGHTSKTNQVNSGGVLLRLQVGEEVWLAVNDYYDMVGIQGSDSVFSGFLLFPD
Chain of human FcγRIIA-R131 α subunit extracellular domain-His6-GST fusion (human) (P12318 other isoform, or with tags, fused parts or gaps, form in doubt): as the sequence (P12318 other isoform, or with tags, fused parts or gaps, form in doubt) above
Chain of human FcγRIIA-Arg131 α subunit extracellular domain-His6-GST fusion (human) (P12318 other isoform, or with tags, fused parts or gaps): as the sequence (P12318 other isoform, or with tags, fused parts or gaps, form in doubt) above
Chain of human FcγRIIB α subunit extracellular domain-His6-GST fusion (human) (P31994 other isoform, or with tags, fused parts or gaps): as the sequence (P31994 other isoform, or with tags, fused parts or gaps, form in doubt) above

For “anti-IgE E27 IgG1 variant Asp270Ala (antibody)”, in experiment [1], the ratio of binding of the variant to that of native IgG1 (ratio (variant/native IgG1)) came to 0.06.
As to C2B8 E333S (antibody), the fold increase in binding against wild type is above 2 fold in [2] and 2 fold in [3].
For E27 IgG1 variant S267(280)T (antibody), the ratio to native IgG1 in experiment [4] is 0.05.
Consider C2B8 P329A (antibody), for which the percentage of the wild type in experiment [5] amounted to 112%.
In the case of “C2B8 (human IgG1 constant region) A327 changed to glycine (antibody)”, the increase in binding against wild type in [2] worked out at 50%.
In [2], C2B8 E333A (antibody) showed an increase in binding against wild type of 30%.
anti-IgE E27 IgG1 Pro329Ala (antibody): in [6], the percentage of the wild type is 96%.
For “anti-IgE E27 IgG1 variant S298(317)V (antibody)”, in experiment [7], the ratio of binding, variant/native IgG1 (mean) came out at 0.11.
C2B8 K326M-E333S (antibody): in [8], the CDC turned out to be 2 fold. The substance also displayed a fold better binding than wild type in experiment [2] above 3 fold.
Consider “E27 IgG1 variant K320(339)R (IG2 235) (antibody)”, for which the ratio to native IgG1 in experiment [4] amounted to 0.86; in [9], 0.95; in experiment [10], 1.24.
Regarding C2B8 K326W (antibody), the values for the fold increase in binding against wild type in experiment [2] and in experiment [11] were 5 fold and above 2 fold, respectively.
With C2B8 E318A (antibody), the CDC (% of wild type) in experiment [8] came out at 108. Further, the percentage of the wild type in [5] was found to be 89%. The same substance showed a decrease in binding against wild type in experiment [2] of 30%.
In experiment [2], C2B8 K326M (antibody) returned a fold increase in binding against wild type above 2 fold.
Regarding C2B8 P331A (antibody), in experiment [5], the percentage of the wild type stood at 103%. In experiment [2], this substance gave a fold lower binding than wild type of 60 fold.
The substance C2B8 K320A (antibody) displayed a CDC (% of wild type) in experiment [8] of 108. Besides, the percentage of the wild type in [5] turned out to be 102%.
Regarding C2B8 K326A-E333A (antibody), in [8], the CDC was 2 fold. Moreover, in [2], the fold better binding than wild type was above 3 fold.
With C2B8 K326E (antibody), the fold increase in binding against wild type in experiment [2] was above 2 fold.
Consider anti-IgE E27 IgG1 Asn297Ala (antibody), for which, in experiment [12], the ratio to native IgG1 came to 0.15.
In the case of “anti-IgE E27 IgG1 Glu233Pro/Leu234Val/Leu235Ala/Gly236deleted (antibody)”, the ratio to native IgG1 in [13] stood at 0.54; in [14], 0.08.
In the case of C2B8 K326A (antibody), the increase in binding against wild type in [2] came to 30%.
For “E27 IgG1 variant K320(339)R (IG2 172) (antibody)”, the ratio to native IgG1 is 0.68 in experiment [4], 0.66 in [9] and 0.71 in [10].
With C2B8 K326D (antibody), the fold increase in binding against wild type in experiment [2] was above 2 fold.
Substance “anti-p185HER2 IgG1 variant Ser298Ala/Glu333Ala/Lys334Ala (antibody)” registered an ADCC, NK cells of Phe158/Phe158 donors in experiment [15] above 100%.
